Substitutions are numbered along the chain they refer to. Where two headings read alike, the source gives them in different places. Where no end group is shown, it is not given here.
B1: Fluorescein-labelled GIV peptide (residues 1,671–1,701) (peptide)
peptide: KTGSPGSEVVTLQQFLEESNKLTSVQIKSSS
modifications: not fully specified (N-terminus); also: 5,6-carboxyfluorescein coupled to resin-bound peptide after elongation, site not given here
B2: Fluorescein-labelled RGS12 GoLoco peptide (residues 1,185–1,221) (peptide)
peptide: DEAEEFFELISKAQSNRADDQRGLLRKEDLVLPEFLR
modifications: not fully specified (N-terminus); also: 5,6-carboxyfluorescein coupled to resin-bound peptide after elongation, site not given here

What was measured:
[1] = target: T1, Human His-Gαi3 K317 mutant (human, UniProt P08754 1-354); experiment: FP; K317A
Human His-Gαi3 WT [2] = target: T2, Human His-Gαi3 WT (human, UniProt P08754 1-354); experiment: FP
T2 chain: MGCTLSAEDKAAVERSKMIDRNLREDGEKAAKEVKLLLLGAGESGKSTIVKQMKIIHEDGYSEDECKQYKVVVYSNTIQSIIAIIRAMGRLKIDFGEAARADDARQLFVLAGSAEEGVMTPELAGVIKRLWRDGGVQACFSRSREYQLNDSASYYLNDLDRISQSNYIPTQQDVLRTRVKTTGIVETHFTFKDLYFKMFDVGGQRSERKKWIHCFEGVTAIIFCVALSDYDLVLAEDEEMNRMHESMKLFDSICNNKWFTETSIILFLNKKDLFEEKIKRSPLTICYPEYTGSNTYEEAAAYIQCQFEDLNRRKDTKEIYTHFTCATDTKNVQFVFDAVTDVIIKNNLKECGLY

[3] = target: T3, Human His-Gαi3 ΔC9 (lacking the last nine residues) (human, UniProt P08754 1-345); experiment: FP
T3 chain: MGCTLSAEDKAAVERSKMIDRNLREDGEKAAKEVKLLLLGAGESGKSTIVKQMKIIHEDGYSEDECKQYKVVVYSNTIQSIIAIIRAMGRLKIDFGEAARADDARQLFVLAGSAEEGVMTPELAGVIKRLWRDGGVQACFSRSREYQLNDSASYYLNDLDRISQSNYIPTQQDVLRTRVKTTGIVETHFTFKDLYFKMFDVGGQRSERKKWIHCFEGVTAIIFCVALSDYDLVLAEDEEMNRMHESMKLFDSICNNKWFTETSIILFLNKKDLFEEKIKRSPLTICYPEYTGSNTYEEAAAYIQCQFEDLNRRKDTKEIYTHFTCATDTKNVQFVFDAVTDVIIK

[4] = target: T1, Human His-Gαi3 K317 mutant; experiment: FP; K317W
[5] = target: Human His-Gαi3 R313 mutant (human, UniProt P08754 1-354); experiment: FP
Human His-Gαi3 WT [6] = target: T2, Human His-Gαi3 WT; experiment: FP
[7] = target: Human His-Gαi3 K257 mutant (human, UniProt P08754 1-354); experiment: FP
[8] = target: Human His-Gαi3 L39 mutant (human, UniProt P08754 1-354); experiment: FP
[9] = target: Human His-Gαi3 F259 mutant (human, UniProt P08754 1-354); experiment: FP
[10] = target: Human His-Gαi3 V218 mutant (human, UniProt P08754 1-354); experiment: FP
[11] = target: Human His-Gαi3 L37 mutant (human, UniProt P08754 1-354); experiment: FP
[12] = target: Human His-Gαi3 G42 mutant (human, UniProt P08754 1-354); experiment: FP
[13] = target: Human His-Gαi3 I184 mutant (human, UniProt P08754 1-354); experiment: FP
[14] = target: Human His-Gαi3 L36 mutant (human, UniProt P08754 1-354); experiment: FP
[15] = target: Human His-Gαi3 W258 mutant (human, UniProt P08754 1-354); experiment: FP
[16] = target: T4, Full-length human Gαi3, untagged (NMR sample) (human, UniProt P08754 1-354); experiment: FP; His-tag cleaved Gαi3
T4 chain: T2 chain

Gαi3 L249V = target: T5, Gαi3 L249V (Homo sapiens); experiment: FP
T5 chain: T2 chain with L249V

Human His-Gαi3 L249H = Human His-Gαi3 L249H (human, UniProt P08754 1-354, L249H); experiment: FP
Human His-Gαi3 N256A = Human His-Gαi3 N256A (human, UniProt P08754 1-354, N256 mutated to A); experiment: FP
Human His-Gαi3 WT [17] = target: T2, Human His-Gαi3 WT; experiment: FP
Human His-Gαi3 S252D = Human His-Gαi3 S252D (human, UniProt P08754 1-354, S252D); experiment: FP
Human His-Gαi3 S252A = Human His-Gαi3 S252A (human, UniProt P08754 1-354, S252 mutated to A); experiment: FP
Human His-Gαi3 W211A = Human His-Gαi3 W211A (human, UniProt P08754 1-354, W211A); experiment: FP

Kd [7] [nM]	Kd [8] [nM]	Kd [9] [nM]	Kd [10] [nM]	Kd [11] [nM]	Kd [12] [nM]	Kd [13] [nM]	Kd [14] [nM]	Kd [15] [nM]	Kd (Gαi3 L249V) [nM]	Kd (Human His-Gαi3 L249H) [nM]	Kd (Human His-Gαi3 WT [17]) [nM]	Kd (Human His-Gαi3 S252D) [nM]	also measured	Binder
870	3080	1260	362	478	377	1910	706	1820	1370	4410	581	3090	Kd [1]: 590 nM; Kd (Human His-Gαi3 WT [2]): 580 nM; Kd [3]: 700 nM; Kd [4]: 510 nM; Kd [5]: 800 nM; Kd (Human His-Gαi3 WT [6]): 580 nM; Kd [16]: 680 nM; Kd (Human His-Gαi3 N256A): 1040 nM	B1
86	176	187	104	80	98	83	119	63	84	266	54	336	Kd (Human His-Gαi3 S252A): 35 nM; Kd (Human His-Gαi3 W211A): 61 nM	B2

Reference: article PMC5454376 (2017)
